Like-named read-outs stand apart in the source and are kept apart here.
Key:
Experiment in all cases: fluorescence quenching
hparp486 [1] = target: T1, hparp486 (Homo sapiens, UniProt P09874 1-486)
hparp486 [2] = target: T1, hparp486; remark: listed apart in the source
hparp486 [3] = target: T1, hparp486; remark: listed apart in the source

T1 sequence (P09874 1-486): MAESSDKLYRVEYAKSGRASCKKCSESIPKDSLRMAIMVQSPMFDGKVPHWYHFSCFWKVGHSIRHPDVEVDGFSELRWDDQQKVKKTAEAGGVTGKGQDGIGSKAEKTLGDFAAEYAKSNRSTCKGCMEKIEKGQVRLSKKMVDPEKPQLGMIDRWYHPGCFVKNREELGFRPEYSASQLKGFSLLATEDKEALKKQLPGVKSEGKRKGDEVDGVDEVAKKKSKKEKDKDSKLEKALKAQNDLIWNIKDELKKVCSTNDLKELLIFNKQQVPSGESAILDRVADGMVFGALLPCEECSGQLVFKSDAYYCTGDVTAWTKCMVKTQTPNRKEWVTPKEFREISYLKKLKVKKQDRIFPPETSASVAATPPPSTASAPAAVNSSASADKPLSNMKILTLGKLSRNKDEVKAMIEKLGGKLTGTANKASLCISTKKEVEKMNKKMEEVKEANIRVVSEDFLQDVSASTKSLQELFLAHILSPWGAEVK

B1: 30Ext (pos. B) (dsDNA)
DNA 1: ATCAGATAGCATCTGTGCGGCCGCTTAGGGTTAGGG
DNA 2: CCCTAAGCGGCCGCACAGATGCTATCTGAT
Kd (hparp486 [1]): 130 nM

B2: 30Ext (pos. A) (dsDNA)
DNA 1: B1 DNA 1
DNA 2: B1 DNA 2
Kd (hparp486 [2]): 68 nM

B3: 30Blunt (dsDNA)
DNA 1: ATCAGATAGCATCTGTGCGGCCGCTTAGGG
DNA 2: B1 DNA 2
Kd (hparp486 [3]): 282 nM

— article PMC2864582
